Assay results taken from the supplement of paper PMC9170038.

Tested on: MS2 coat protein
Experiment: apparent KD of MS2 coat protein; designed switch direction (-1 OFF switch, 1 ON switch): -1; higher = weaker reporter binding
Procedure, shortened: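 The reported apparent KD is a per-design median over clusters, from curve fits of normalised cluster fluorescence. Protein titrations used SNAP-549-labelled MS2 coat protein, doubled from 0.7 or 1.5 nM to 3 µM, in Tris-HCl pH 7.5 buffer with KCl, MgCl2, BSA, DTT, tRNA and Tween-20, with no input, 200 uM small-molecule ligand, or an oligonucleotide input. The RNA switches were transcribed on Illumina chips by stalled E. coli RNA polymerase.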

[1] = input ligand: microRNA oligo, concentration not stated
[2] = Eterna round: R95, input ligand: microRNA oligo, concentration not stated
[3] = Eterna round: R95, input ligand: FMN 200 uM
[4] = Eterna round: R95, input ligand: none

Sequence	apparent KD of MS2 coat protein (input ligand: FMN 200 uM)	apparent KD of MS2 coat protein (input ligand: none)	apparent KD of MS2 coat protein [1]	apparent KD of MS2 coat protein [2]	apparent KD of MS2 coat protein [3]	apparent KD of MS2 coat protein [4]
UUUACAAGCUUUUGAUCCCACAUGAGGAUCACCCAUGUUGCUGCCGUGAGGUAGCUUUUAACAAAUGCUCGUCUUAU [JL TOV1 3.37] (Eterna round: R97, puzzle: Sensor, turn-off variant 1)	0.59 µM	0.69 µM	–	–	–	–
GCGCACCUACCAAAAGGUAGGCCAACAUGAGGAUCACCCAUGUAGGAUAUCGAUUGCUUUGCAGUCGAGAAGGGCAUGAUGCGC [JL ENG3 3.80 Mod 20] (Eterna round: R96, puzzle: Exclusion NG 3)	0.0172 µM	0.0199 µM	0.0144 µM	–	–	–
ACAUGAGGAUCACCCAUGUCAGGUUGGUUUUCUCCGGCUGUUGAGGAUAUAGUCCGGUAUCCGCGCUAGAAGGUGAGGGUUGGC [Aenatbe mod 13] (Eterna round: R96, puzzle: Exclusion NG 3)	0.0645 µM	0.0787 µM	0.0544 µM	–	–	–
GCUGGUCGAGGAUAUACAUAACGUGCUUCGGCACGAGAUCUACAUGAGGAUCACCCAUGUAGAAGGCGACCAGC [E2/10-A1] (Eterna round: R97, puzzle: Exclusion 2)	0.0578 µM	0.018 µM	–	–	–	–
ACUUAUUGAGGAUAUACAUUAAAAUACAUGAGGAUCACCCAUGUUCUUCAAUGUAUAUAUGUAGAAGGCAGAAGAA [JL-ex5-4.29 Malcolm mod] (Eterna round: R97, puzzle: Exclusion 5)	0.0576 µM	0.0222 µM	–	–	–	–
UUUCCACAUGAGGAUCACCCAUGUCAGGAUAUCUCCACAUCUUCGGAUGUGGCGUGUUAGAGAAGGGACAUGUA [EX1 A.22] (Eterna round: R97, puzzle: Exclusion 1)	0.104 µM	0.0337 µM	–	–	–	–
CAAAAGCGAGGAUAUACAUGAGGAUCACCCAUGUGGCAGCCAUGUAGGAGUGACGUCGGUAGAAGGCGCACCCU [Soaran] (puzzle: Exclusion 3)	–	–	–	0.0762 µM	–	–
CGUGACUCAGGAUAUCUAUUAUGUCACAUGAGGAUCACCCAUGUCCAGCGAAAGCUGGAGGGAGAAGGGAGUCACG [Fiskers Ex 5 - 45] (puzzle: Exclusion 5)	–	–	–	0.118 µM	–	–
AUAGGAGGAGGAUAUACAUGAGGAUCACCCAUGUGAUCGCCGUAAAAUGCAGUUAGACGUAGAAGGUCUCCCGG [Eternabot (L2) Solution 77] (Eterna round: R97, puzzle: Exclusion 3)	0.0368 µM	0.0347 µM	–	–	–	–
GAUUAUGCGAGCUUUAGGGACAUGAGGAUCACCCAUGUUCGUCUUAUUAGUCUGGGUACACUAACAUACCUAAAUCU [JMF 21] (puzzle: Sensor v3, turn-off variant 1)	–	–	–	0.0436 µM	0.0269 µM	0.0304 µM
GGGCCCGGAGGAUAUACAAUGGGUUUGGGAAACCGGGCCCUACAUGAGGAUCACCCAUGUAGAAGGCCGGGCCC [-41, -38.9 kcal A 24%, 5b,0] (Eterna round: R97, puzzle: Exclusion 2)	0.0399 µM	0.0342 µM	–	–	–	–
UGAUCUAGGCGAGGAUAUACAUGAGGAUCACCCAUGUAAUGGUGACAUGCGUACAUGUCACCUAUGUAGAAGGCGCCUAGAUCU [JL ENG2 3.55] (Eterna round: R96, puzzle: Exclusion NG 2)	0.0196 µM	0.013 µM	0.009 µM	–	–	–
GGUCAGAUGGUAGGAUAUCCAUAUCGAGUGACCCUUUCAUAACAUGAGGAUCACCCAUGUCGGUGGGAGAAGGGCCGUACGGCG [salish99_ExNG02_R04_010] (Eterna round: R96, puzzle: Exclusion NG 2)	0.0439 µM	0.0417 µM	0.0328 µM	–	–	–
CGUUACUACAAGCUUUGGGACAUGAGGAUCACCCAUGUUCGUCUUAUUGUAGUAGGUACGCUGACGUACCUACUACU [JL-sv1-2.10 Brourd mod] (puzzle: Sensor v3, turn-off variant 1)	–	–	–	0.029 µM	0.0156 µM	0.0139 µM
GCAAGCUUAAUCAGUAUGAACAUGAGGAUCACCCAUGUAUAAGGUAAUACUUUUGGGCCCUUUAUUACUCGUCUUAU [JR_STOV1_Sub029] (Eterna round: R97, puzzle: Sensor, turn-off variant 1)	0.0674 µM	0.0726 µM	–	–	–	–
CUGUGCACGCUGCGGUCCUACAUGAGGAUCACCCAUGUGGUCUGGUGGCGUGGGUCGCCGGACUUGGCUCGUCUUGU [salish99_S_TOV1_R5_024] (Eterna round: R97, puzzle: Sensor, turn-off variant 1)	0.0182 µM	0.0193 µM	–	–	–	–
AAUUUACAUGAGGAUCACCCAUGUGAGGAUAUAUGCAAACAAUUUUUAUUAAUAAAGCAUAGAAGGCGCGUGAU [JR_Exc1_Sub043] (Eterna round: R97, puzzle: Exclusion 1)	0.0905 µM	0.0657 µM	–	–	–	–
UUAUAACAUGAGGAUCACCCAUGUUAGGAUAUCAGGUACGAGCGCCGUGCUCAGGCCCUGAGAAGGAGCAUGGC [Eternabot (L1) Solution 36] (Eterna round: R97, puzzle: Exclusion 1)	0.0149 µM	0.0186 µM	–	–	–	–
GGUGGACAUGAGGAUCACCCAUGUGAGGAUAUCGGCUGGUACGUGUUGGCUGGCAUCUCGAGAAGGCACAUCGU [Exclusion 1 V64] (puzzle: Exclusion 1)	–	–	–	0.0448 µM	–	–
CCCGUGUUAGGAUAUAUGGAAGAGCGGACGGGCGCUCCAAGGUAGAAGGAACAUGAGGAUCACCCAUGUAAUAA [Teleerdion] (Eterna round: R97, puzzle: Exclusion 4)	0.0426 µM	0.0286 µM	–	–	–	–
AAUGGUAAAGUCAGGAUAUACGUACGUCGUUCUAGGUAGAAGGGACAUGAGGAUCACCCAUGUAUGAUAGUAAA [Ex4 #34] (Eterna round: R97, puzzle: Brourd's mod of Exclusion 4)	0.0241 µM	0.0329 µM	–	–	–	–
AAGAAACAUGAGGAUCACCCAUGUGAGGAUAUGAGAAAGAAAAGAAAAGAAAGAAGAAUCAGAAGGCACAAAGG [salish99-ex1_r3_032] (puzzle: Exclusion 1)	–	–	–	0.0777 µM	0.117 µM	0.116 µM
ACAUGAGGAUCACCCAUGUAAACAUAAUGGCUGAUGUAGAGUCAGGAUAUGCGUGGCUAACAAUCGCAGAAGGGACAAGACUGG [Deportation 30 - Jieux - Exclusion NG 3] (Eterna round: R96, puzzle: Exclusion NG 3)	0.0222 µM	0.025 µM	0.0231 µM	–	–	–
CUGAGGUAGCGGUCCUAUGACAUGAGGAUCACCCAUGUACCUUGCUACGAGCUUUUUGCUCGUCUUAUAAUUCUCGG [JL Atriat mod 3] (puzzle: Sensor v3, turn-off variant 1)	–	–	–	0.0915 µM	0.466 µM	0.526 µM
ACAUGUUAUGUAGGAUAUUGGACACAUGAGGAUCACCCAUGUACCCGGAGGCUUUACUAUGAGUUCGAGAAGGGUAUGAACAUG [Ex NG2 #68] (Eterna round: R96, puzzle: Exclusion NG 2)	0.0398 µM	0.0294 µM	0.0211 µM	–	–	–
